Biological target: T1, Tkip (tyrosine kinase inhibitor peptide), WLVFFVIFYFFR
T1 chain: WLVFFVIFYFFR

B1: Recombinant human JAK2 immobilized on agarose beads (protein)
chain: MGMACLTMTEMEGTSTSSIYQNGDISGNANSMKQIDPVLQVYLYHSLGKSEADYLTFPSGEYVAEEICIAASKACGITPVYHNMFALMSETERIWYPPNHVFHIDESTRHNVLYRIRFYFPRWYCSGSNRAYRHGISRGAEAPLLDDFVMSYLFAQWRHDFVHGWIKVPVTHETQEECLGMAVLDMMRIAKENDQTPLAIYNSISYKTFLPKCIRAKIQDYHILTRKRIRYRFRRFIQQFSQCKATARNLKLKYLINLETLQSAFYTEKFEVKEPGSGPSGEEIFATIIITGNGGIQWSRGKHKESETLTEQDLQLYCDFPNIIDVSIKQANQEGSNESRVVTIHKQDGKNLEIELSSLREALSFVSLIDGYYRLTADAHHYLCKEVAPPAVLENIQSNCHGPISMDFAISKLKKAGNQTGLYVLRCSPKDFNKYFLTFAVERENVIEYKHCLITKNENEEYNLSGTKKNFSSLKDLLNCYQMETVRSDNIIFQFTKCCPPKPKDKSNLLVFRTNGVSDVPTSPTLQRPTHMNQMVFHKIRNEDLIFNESLGQGTFTKIFKGVRREVGDYGQLHETEVLLKVLDKAHRNYSESFFEAASMMSKLSHKHLVLNYGVCVCGDENILVQEFVKFGSLDTYLKKNKNCINILWKLEVAKQLAWAMHFLEENTLIHGNVCAKNILLIREEDRKTGNPPFIKLSDPGISITVLPKDILQERIPWVPPECIENPKNLNLATDKWSFGTTLWEICSGGDKPLSALDSQRKLQFYEDRHQLPAPKWAELANLINNCMDYEPDFRPSFRAIIRDLNSLFTPDYELLTENDMLPNMRIGALGFSGAFEDRDPTQFEERHLKFLQQLGKGNFGSVEMCRYDPLQDNTGEVVAVKKLQHSTEEHLRDFEREIEILKSLQHDNIVKYKGVCYSAGRRNLKLIMEYLPYGSLRDYLQKHKERIDHIKLLQYTSQICKGMEYLGTKRYIHRDLATRNILVENENRVKIGDFGLTKVLPQDKEYYKVKEPGESPIFWYAPESLTESKFSVASDVWSFGVVLYELFTYIEKSKSPPAEFMRMIGNDKQGQMIVFHLIELLKNNGRLPRPDGCPDEIYMIMTECWNNNVNQRPSFRDLALRVDQIRDNMAG
  JAK2 autophosphorylation and JAK2 phosphorylation of IFNGR-1, in vitro kinase assay (32P autoradiography): Tkip at 50 µM inhibited both the autophosphorylation of JAK2 as well as JAK2 phosphorylation of IFNGR-1
